Measured values published in patent publication US6831059 (ALLERGAN SALES, dated 2004).

Experiments:
[1] = molecular target: native TeTx H chain (UniProt P04958)
[2] = molecular target: native BoNT/A H chain (UniProt P0DPI0)
[3] = molecular target: T1, native TeTx H chain (UniProt P04958 458-1315); assay: reassociation by dialysis, non-reducing SDS-PAGE, silver staining
T1 sequence: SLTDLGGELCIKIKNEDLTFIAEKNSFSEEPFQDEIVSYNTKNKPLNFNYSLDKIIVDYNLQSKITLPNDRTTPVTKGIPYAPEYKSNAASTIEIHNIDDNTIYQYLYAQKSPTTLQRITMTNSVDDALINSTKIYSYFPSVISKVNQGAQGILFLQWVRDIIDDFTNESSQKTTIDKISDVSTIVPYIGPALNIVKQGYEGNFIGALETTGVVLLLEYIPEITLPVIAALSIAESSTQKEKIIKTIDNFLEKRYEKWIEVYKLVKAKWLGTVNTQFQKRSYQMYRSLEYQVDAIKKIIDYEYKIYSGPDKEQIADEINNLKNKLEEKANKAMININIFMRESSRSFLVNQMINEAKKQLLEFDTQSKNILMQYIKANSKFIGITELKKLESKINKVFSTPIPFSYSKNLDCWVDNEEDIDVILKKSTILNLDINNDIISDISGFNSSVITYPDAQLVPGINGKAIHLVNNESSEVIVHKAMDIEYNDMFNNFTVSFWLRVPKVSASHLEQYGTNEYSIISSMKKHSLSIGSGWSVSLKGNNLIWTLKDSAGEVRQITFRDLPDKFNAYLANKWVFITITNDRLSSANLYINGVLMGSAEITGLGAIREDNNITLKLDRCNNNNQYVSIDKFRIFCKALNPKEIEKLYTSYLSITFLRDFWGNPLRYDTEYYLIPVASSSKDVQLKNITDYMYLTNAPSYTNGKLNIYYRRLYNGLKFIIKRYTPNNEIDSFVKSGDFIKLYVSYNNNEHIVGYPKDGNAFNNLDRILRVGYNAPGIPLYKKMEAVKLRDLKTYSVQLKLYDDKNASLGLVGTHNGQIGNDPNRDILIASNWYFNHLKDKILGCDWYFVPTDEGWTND

native BoNT/A H chain, sequence (P0DPI0 449-1296 limits assumed): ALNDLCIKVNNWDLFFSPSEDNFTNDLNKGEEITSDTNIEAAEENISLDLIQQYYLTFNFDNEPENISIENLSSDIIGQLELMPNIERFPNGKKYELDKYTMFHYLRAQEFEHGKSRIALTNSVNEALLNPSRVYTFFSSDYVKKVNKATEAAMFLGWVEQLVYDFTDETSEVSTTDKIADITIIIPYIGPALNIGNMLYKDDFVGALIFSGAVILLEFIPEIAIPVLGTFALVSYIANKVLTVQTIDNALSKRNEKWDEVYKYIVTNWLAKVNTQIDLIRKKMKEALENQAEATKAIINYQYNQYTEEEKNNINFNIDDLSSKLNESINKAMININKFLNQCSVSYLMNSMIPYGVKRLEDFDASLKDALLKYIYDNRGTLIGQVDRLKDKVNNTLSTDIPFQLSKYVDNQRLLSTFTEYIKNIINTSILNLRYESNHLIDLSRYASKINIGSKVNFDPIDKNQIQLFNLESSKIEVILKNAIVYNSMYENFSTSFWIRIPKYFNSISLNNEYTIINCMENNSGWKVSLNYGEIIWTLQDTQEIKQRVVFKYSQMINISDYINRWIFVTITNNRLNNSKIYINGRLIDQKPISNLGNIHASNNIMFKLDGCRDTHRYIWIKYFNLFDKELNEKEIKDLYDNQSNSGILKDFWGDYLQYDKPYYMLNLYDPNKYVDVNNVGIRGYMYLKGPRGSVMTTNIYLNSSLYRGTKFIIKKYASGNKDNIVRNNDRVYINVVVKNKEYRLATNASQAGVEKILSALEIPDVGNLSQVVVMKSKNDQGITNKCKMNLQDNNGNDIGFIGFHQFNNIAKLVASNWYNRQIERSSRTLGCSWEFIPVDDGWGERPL

“recombinant wild-type TeTx L chain (from UniProt P04958 1-457) (enzyme)” was tested, and the relative amount of the dichain species [1] was 55.1%.

In the case of “native BoNT/A L chain (from UniProt P0DPI0 2-448) (enzyme)”, the proportion of L chain reassociated with the H chain [2] is reported as > 90%.

B1: native TeTx L chain (enzyme)
chain: PITINNFRYSDPVNNDTIIMMEPPYCKGLDIYYKAFKITDRIWIVPERYEFGTKPEDFNPPSSLIEGASEYYDPNYLRTDSDKDRFLQTMVKLFNRIKNNVAGEALLDKIINAIPYLGNSYSLLDKFDTNSNSVSFNLLEQDPSGATTKSAMLTNLIIFGPGPVLNKNEVRGIVLRVDNKNYFPCRDGFGSIMQMAFCPEYVPTFDNVIENITSLTIGKSKYFQDPALLLMHELIHVLHGLYGMQVSSHEIIPSKQEIYMQHTYPISAEELFTFGGQDANLISIDIKNDLYEKTLNDYKAIANKLSQVTSCNDPNIDIDSYKQIYQQKYQFDKDSNGQYIVNEDKFQILYNSIMYGFTEIELGKKFNIKTRLSYFSMNHDPVKIPNLLDDTIYNDTEGFNIESKDLKSEYKGQNMRVNTNAFRNVDGSGLVSKLIGLCKKIIPPTNIRENLYNRTA
B1: binds [3].
